Assay results taken from publication PMC6731095, “Regulation of Eag1 gating by its intracellular domains” (eLife, 2019).

Columns and labels:
[1] = target: the molecule itself; assay: cryo-EM structure; Eag1 Δ3–13 and CaM co-expressed and co-purified; 20 mM Tris pH 8, 300 mM KCl, 1 mM CaCl2, 0.05% digitonin; 5 mg/ml; C4 symmetry imposed; two conformations
Calmodulin = target: T1, Calmodulin (human, UniProt P0DP24 1-149); assay: as above; details: both partners purified
T1 construct: Calmodulin, Homo sapiens, Uniprot P0DP24; Calcium (1 mM CaCl2) was present throughout; also called CaM; source: HEK293S GnTI-, infected with BacMam baculovirus together with Eag1 Δ3–13 baculovirus, co-purified with Eag1 Δ3–13

binding result (Calmodulin): binds
B1: Eag1 Δ3–13 (rat Kv10.1/Eag1/Kcnh1, residues 3–13 deleted, C-terminal unstructured region 773-886 removed) (natural protein, UniProt Q63472 1-962, looked up)
chain: MTQNTFLENIVRRSNDTNFVLGNAQIVDWPIVYSNDGFCKLSGYHRAEVMQKSSACSFMYGELTDKDTVEKVRQTFENYEMNSFEILMYKKNRTPVWFFVKIAPIRNEQDKVVLFLCTFSDITAFKQPIEDDSCKGWGKFARLTRALTSSRGVLQQLAPSVQKGENVHKHSRLAEVLQLGSDILPQYKQEAPKTPPHIILHYCVFKTTWDWIILILTFYTAILVPYNVSFKTRQNNVAWLVVDSIVDVIFLVDIVLNFHTTFVGPAGEVISDPKLIRMNYLKTWFVIDLLSCLPYDVINAFENVDEGISSLFSSLKVVRLLRLGRVARKLDHYIEYGAAVLVLLVCVFGLAAHWMACIWYSIGDYEIFDEDTKTIRNNSWLYQLALDIGTPYQFNGSGSGKWEGGPSKNSVYISSLYFTMTSLTSVGFGNIAPSTDIEKIFAVAIMMIGSLLYATIFGNVTTIFQQMYANTNRYHEMLNSVRDFLKLYQVPKGLSERVMDYIVSTWSMSRGIDTEKVLQICPKDMRADICVHLNRKVFKEHPAFRLASDGCLRALAMEFQTVHCAPGDLIYHAGESVDSLCFVVSGSLEVIQDDEVVAILGKGDVFGDVFWKEATLAQSCANVRALTYCDLHVIKRDALQKVLEFYTAFSHSFSRNLILTYNLRKRIVFRKISDVKREEEERMKRKNEAPLILPPDHPVRRLFQRFRQQKEARLAAERGGRDLDDLDVEKGNALTDHTSANHSLVKASVVTVRESPATPVSFYPIPEQTLQATVLEVKHELKEDIKALNAKMTSIEKQLSEILRILMSRGSSQSPQDTCEVSRPQSPESDRDIFGAS
notes: Kv10.1/Eag1/Kcnh1, Rattus norvegicus, Uniprot Q63472; whole channel with residues 3-13 of the PAS loop deleted and the C-terminal unstructured region 773-886 removed; The GFP tag was removed with PreScission protease; also called calmodulin insensitive mutant; not shown: GFP, C-terminal, cleaved; His6, C-terminal, cleaved
stoichiometry N [1]: 4
